# Results published in the RNAGym collection of RNA variant scans (doi:10.7554/elife.80360).
# B1: CPEB3 Ribozyme (parent)
# chain: GGGGGCCACAGCAGAAGCGUUCACGUCGCGGCCCCUGUCAGAUUCUGGUGAAUCUGCGAAUUCUGCUGU
# Variants of: B1
# Assay: self-cleavage, relative activity (ratio to wild type); higher = more cleavage; co-transcriptional
row,Variant,self-cleavage
1,GGGGGCCACAGCGGAAGCGUUCACGUCGCGGCCCCUGUCAGAUUCGGGUGAAUCUGCGAAUUCUGCUGU,0.979
2,GGGGGCCACAGCGGAAGCGUUCACGUCGCGGCCCCUGUCAGAUUCUGGUGAAUCUGCGAAUUGUGCUGU,0.504
3,GGGGGCCACAGCGGAAGCGUUCACGUCGCGGCCCCUGUCAGAUUCUGGUGAAUCUGCGAAUUUUGCUGU,0.842
4,GGGGGCCACAGCGGAAGCGUUCACGUCGCGGCCCCUGUCAGAUUCUGGUGAAUCUGCGAAUUAUGCUGU,0.26
5,GGGGGCCACAGCGGAAGCGUUCACGUCGCGGCCCCUGUCAGAUUCUGGUGAAUCUGCGAACUCUGCUGU,0.402
6,GGGGGCCACAGCGGAAGCGGUCACGUCGCGGCCCCUGUCAGAUUCUGGUGAAUCUGCGAAUUCUGCUGU,0.0546
7,GGGGGCCACAGCGGAAGCGUUCACGUCGCGGCCCCUGUCAGAUUCUGGUGAAUCUGCGAAUUCUUCUGU,0.561
8,GGGGGCCACAGCGGAAGCAUUCACGUCGCGGCCCCUGUCAGAUUCUGGUGAAUCUGCGAAUUCUGCUGU,0.155
9,GGGGGCCACAGCGGAAGCUUUCACGUCGCGGCCCCUGUCAGAUUCUGGUGAAUCUGCGAAUUCUGCUGU,0.0922
10,GGGGGCCACAGCGGAAGCGUUCACGUCGCGGCCCCUGUCAAAUUCUGGUGAAUCUGCGAAUUCUGCUGU,0.448
11,GGGGGCCACAGCGGAAGCGUUCACGUCGCGGCCUCUGUCAGAUUCUGGUGAAUCUGCGAAUUCUGCUGU,1.02
12,GGGGGCCACAGCGGAAGCGUUCACGUCGCGGCCGCUGUCAGAUUCUGGUGAAUCUGCGAAUUCUGCUGU,0.293
13,GGGGGCCACAGCGGAAGCGUUCACGUCGCGGCCACUGUCAGAUUCUGGUGAAUCUGCGAAUUCUGCUGU,0.797
14,GGGGGCCACAGCGCAAGCGUUCACGUCGCGGCCCCUGUCAGAUUCUGGUGAAUCUGCGAAUUCUGCUGU,0.255
15,GGGGGCCACAGCGUAAGCGUUCACGUCGCGGCCCCUGUCAGAUUCUGGUGAAUCUGCGAAUUCUGCUGU,0.146
16,GGGGGCCACAGCGAAAGCGUUCACGUCGCGGCCCCUGUCAGAUUCUGGUGAAUCUGCGAAUUCUGCUGU,0.276
17,GGGGGCCACAGCGGAAGCGUUCACGUCGCGGCCCCUGUCAGAUUCUGGUGAAUCCGCGAAUUCUGCUGU,0.621
18,GGGGGCCACAGCGGAAGCGUUCACGUCGCGGCCCCUGUCAGAUUCUGGUGAAUCGGCGAAUUCUGCUGU,0.51
19,GGGGGCCACAGCGGAAGCGUUCACGUCGCGGCCCCUGUCAGAUGCUGGUGAAUCUGCGAAUUCUGCUGU,0.826
20,GGGGGCCACAGCGGAAUCGUUCACGUCGCGGCCCCUGUCAGAUUCUGGUGAAUCUGCGAAUUCUGCUGU,0.214

row,Variant,self-cleavage
1,GGGGGCCACAGCGGAAACGUUCACGUCGCGGCCCCUGUCAGAUUCUGGUGAAUCUGCGAAUUCUGCUGU,0.0885
2,GGGGGCCACAGCGGAAGCGUUCACGUCGCGGCCCCUGUCAGAUUCUGGUGAAUGUGCGAAUUCUGCUGU,0.772
3,GGGGGCCACAGCGGAAGCGUUCACGUCGCGGCCCCUGUCAGAUUCUGGUGAAUAUGCGAAUUCUGCUGU,0.642
4,GGGGGCCACAGCGGAAGCGUUCACGUCGCGUCCCCUGUCAGAUUCUGGUGAAUCUGCGAAUUCUGCUGU,0.555
5,GGGGGCCACAGCGGAAGCGUUCACGUCGCGACCCCUGUCAGAUUCUGGUGAAUCUGCGAAUUCUGCUGU,0.775
6,GGGGGCCACAGCGGAAGCGUUCACGGCGCGGCCCCUGUCAGAUUCUGGUGAAUCUGCGAAUUCUGCUGU,0.935
7,GGGGGCCACAGCGGAAGCGUUCACGCCGCGGCCCCUGUCAGAUUCUGGUGAAUCUGCGAAUUCUGCUGU,0.78
8,GGGGGCCACAGCGGAAGCGUUCACGUCGCGGCCCCUGUCAGAUUCUAGUGAAUCUGCGAAUUCUGCUGU,0.994
9,GGGGGCCACAGCGGAAGCGUUCACGUCGCGGCCCCUGUCAGAUUCUUGUGAAUCUGCGAAUUCUGCUGU,1.06
10,GGGGGCCACAGCGGAAGCGUUCACGUCGCGGCCCCUGGCAGAUUCUGGUGAAUCUGCGAAUUCUGCUGU,0.149
11,GGGGGCCACAGCGGAAGCGUUCACGUCGCGGCCCCUGACAGAUUCUGGUGAAUCUGCGAAUUCUGCUGU,0.898
12,GGGGGCCACAGCGGAAGCGUUCACGUCGCGGCCCCUGCCAGAUUCUGGUGAAUCUGCGAAUUCUGCUGU,0.938
13,GGGGGCCACAGCGGAAGCGUUCACGUCGCGGCCCCCGUCAGAUUCUGGUGAAUCUGCGAAUUCUGCUGU,0.816
14,GGGGGCCACAGCGGAAGCGUUCACGUCGCGGCCCCAGUCAGAUUCUGGUGAAUCUGCGAAUUCUGCUGU,0.222
15,GGGGGCCACAGCGGAAGCGUUCACGUCGCGGCCCCUGUGAGAUUCUGGUGAAUCUGCGAAUUCUGCUGU,0.758
16,GGGGGCCACAGCGGAAGCGUUCACGUCGCGGCCCCUGUUAGAUUCUGGUGAAUCUGCGAAUUCUGCUGU,0.8
17,GGGGGCCACAGCGGAAGCGUUCACGUCGCGGCCCCUGUCAGAUUCUGGUGAAUCUGCGAAUUCUGCUAU,1.01
18,GGGGGCCACAGCGGAAGCGUUCACGUCGCGGCCCCUGUCAGAUUUUGGUGAAUCUGCGAAUUCUGCUGU,0.917
19,GGGGGCCACAGCGGAAGCGUUCACGUCGCGGCCCCUGUCAGAUUAUGGUGAAUCUGCGAAUUCUGCUGU,0.889
